Experiments:
[1] = biological target: fusion protein TOM70-(GGGGS)3-UB-p53 (UniProt P07213)
[2] = biological target: recombinant fusion protein TOM70-UB-p53 (UniProt P07213)

In the case of UBP1 enzyme, the “cleavage of the ubiquitin sequence by UBP1, 37 C for 1 hour, SDS-PAGE” value [1] is reported as “the 3′ end of ubiquitin was cleaved by UBP1 enzyme, and only p53 protein was dissociation as expected” and the “cleavage of the ubiquitin sequence by UBP1, 37 C for 1 hour, SDS-PAGE” value [2] is reported as “the dissociation of the ubiquitin protein from the fusion protein did not occur at all by UBP1”.
